# Data from patent US20180222961A1 (IMMATICS BIOTECHNOLOGIES, published 2018).
# Target: T1, HLA-A*01:01 (human)
# T1 construct: also called peptide-receptive MHC molecules
# Test: UV-exchange b2m ELISA; exchange-yield grade
# Outline: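 Binding capacity is graded by how much β2m-containing, stabilised complex survives UV-induced loss of the placeholder peptide. An anti-β2m sandwich ELISA on streptavidin capture, calibrated with refolded monomers (15-500 ng/ml), measures this.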
row,peptide exchange yield,Binder
1,50 to 75%,NVTMKVVSVLY
2,50 to 75%,ETIRSVGYY
